Paper PMC2174279
One block for each substance: values may come before it.

Key:
[1] = molecular target: Arc40p (LexA two-hybrid bait) (S. cerevisiae) (UniProt P38328); experiment: two-hybrid
[2] = molecular target: Arc40p-HA (S. cerevisiae) (UniProt P38328); experiment: co-IP
[3] = molecular target: Bee1p-HA (S. cerevisiae); experiment: co-IP
[4] = molecular target: Bee1p (1-633) (S. cerevisiae); experiment: two-hybrid
[5] = molecular target: Bee1p (166-633) (S. cerevisiae); experiment: two-hybrid
[6] = molecular target: Arc19p (LexA two-hybrid bait) (S. cerevisiae) (UniProt P33204); experiment: two-hybrid
[7] = molecular target: Bee1p (1-165) (S. cerevisiae); experiment: two-hybrid
[8] = molecular target: peptide PRP2 (…), LexA bait; experiment: two-hybrid
[9] = molecular target: peptide PRP2-1 (…), LexA bait; experiment: two-hybrid

percent of the total Myo3p in the extract coimmunoprecipitated [2]: 1% | percent of the total Myo3p in the extract coimmunoprecipitated [3]: 1%
Substance: Myo3p (from UniProt P36006 1-1272) (natural protein)

LacZ expression (two-hybrid) [4]: 1760 Miller units
Substance: Myo3p-SH3 (1118-1188) (from UniProt P36006 1118-1188) (domain or fragment)

LacZ expression (two-hybrid) [5]: 113 Miller units | LacZ expression (two-hybrid) [6]: 152 Miller units | LacZ expression (two-hybrid) [1]: 458 Miller units | LacZ expression (two-hybrid) [7]: 1200 Miller units | LacZ expression (two-hybrid) [8]: 210 Miller units | LacZ expression (two-hybrid) [9]: 219 Miller units | LacZ expression (two-hybrid) [4]: 715 Miller units
Substance: Myo3p-SH3-AD (1118-1271) (from UniProt P36006 1118-1271) (domain or fragment)

Second part, the substance before the results:

Substance: Bee1p-WH2-AD (531-633) (domain or fragment)
LacZ expression (two-hybrid) [1]: 18 Miller units

Substance: Myo3p(SH3-W1157S) (from UniProt P36006 1-1272) (natural protein)
percent coimmunoprecipitated [2]: 0.1%

Substance: Myo3p-AD (1182-1271) (from UniProt P36006 1182-1271) (domain or fragment)
LacZ expression (two-hybrid) [1]: 151 Miller units

Substance: Myo3p-AD-32 (1239-1271) (from UniProt P36006 1239-1271) (domain or fragment)
LacZ expression (two-hybrid) [1]: 25 Miller units

Substance: Myo3p-SH3(W1157S)-AD (1118-1271) (from UniProt P36006 1118-1271) (domain or fragment)
LacZ expression (two-hybrid) [1]: 366 Miller units

Substance: Myo3pΔAD (from UniProt P36006 1-1188) (domain or fragment)
percent coimmunoprecipitated [3]: 1%
